Reference: patent US5162210A, “Process for enzymatic hydrolysis of starch to glucose” (Iowa State University Research Foundation, priority 1990, dated 1992)

B1: Aspergillus awamori glucoamylase, wild type (unmutated, expressed in Saccharomyces cerevisiae) (Aspergillus awamori) (protein)
chain: ATLDSWLSNEATVARTAILNNIGADGAWVSGADSGIVVASPSTDNPDYFYTWTRDSGLVLKTLVDLFRNGDTSLLSTIENYISAQAIVQGISNPSGDLSSGAGLGEPKFNVDETAYTGSWGRPQRDGPALRATAMIGFGQWLLDNGYTSTATDIVWPLVRNDLSYVAQYWNQTGYDLWEEVNGSSFFTIAVQHRALVEGSAFATAVGSSCSWCDSQAPEILCYLQSFWTGSFILANFDSSRSGKDANTLLGSIHTFDPEAACDDSTFQPCSPRALANHKEVVDSFRSIYTLNDGLSDSEAVAVGRYPEDTYYNGNPWFLCTLAAAEQLYDALYQWDKQGSLEVTDVSLDFFKALYSDAATGTYSSSSSTYSSIVDAVKTFADGFVSIVETHAASNGSMSEQYDKSDGEQLSARDLTWSYAALLTANNRRNSVVPASWGETSASSVPGTCAATSAIGTYSSVTVTSWPSIVATGGTTTTATPTGSGSVTSTSKTTATASKTSTSTSSTSCTTPTAVAVTFDLTATTTYGENIYLVGSISQLGDWETSDGIALSADKYTSSDPLWYVTVTLPAGESFEYKFIRIESDDSVEWESDPNREYTVPQACGTSTATVTDTWR
B2: Aspergillus awamori glucoamylase variant Trp178→Arg (Aspergillus awamori; W202R) (protein)
chain: ATLDSWLSNEATVARTAILNNIGADGAWVSGADSGIVVASPSTDNPDYFYTWTRDSGLVLKTLVDLFRNGDTSLLSTIENYISAQAIVQGISNPSGDLSSGAGLGEPKFNVDETAYTGSWGRPQRDGPALRATAMIGFGQWLLDNGYTSTATDIVWPLVRNDLSYVAQYWNQTGYDLREEVNGSSFFTIAVQHRALVEGSAFATAVGSSCSWCDSQAPEILCYLQSFWTGSFILANFDSSRSGKDANTLLGSIHTFDPEAACDDSTFQPCSPRALANHKEVVDSFRSIYTLNDGLSDSEAVAVGRYPEDTYYNGNPWFLCTLAAAEQLYDALYQWDKQGSLEVTDVSLDFFKALYSDAATGTYSSSSSTYSSIVDAVKTFADGFVSIVETHAASNGSMSEQYDKSDGEQLSARDLTWSYAALLTANNRRNSVVPASWGETSASSVPGTCAATSAIGTYSSVTVTSWPSIVATGGTTTTATPTGSGSVTSTSKTTATASKTSTSTSSTSCTTPTAVAVTFDLTATTTYGENIYLVGSISQLGDWETSDGIALSADKYTSSDPLWYVTVTLPAGESFEYKFIRIESDDSVEWESDPNREYTVPQACGTSTATVTDTWR
B3: Aspergillus awamori glucoamylase variant Ser184→His (Ser→His184, S→H184) (Aspergillus awamori; S208H) (protein)
chain: ATLDSWLSNEATVARTAILNNIGADGAWVSGADSGIVVASPSTDNPDYFYTWTRDSGLVLKTLVDLFRNGDTSLLSTIENYISAQAIVQGISNPSGDLSSGAGLGEPKFNVDETAYTGSWGRPQRDGPALRATAMIGFGQWLLDNGYTSTATDIVWPLVRNDLSYVAQYWNQTGYDLWEEVNGHSFFTIAVQHRALVEGSAFATAVGSSCSWCDSQAPEILCYLQSFWTGSFILANFDSSRSGKDANTLLGSIHTFDPEAACDDSTFQPCSPRALANHKEVVDSFRSIYTLNDGLSDSEAVAVGRYPEDTYYNGNPWFLCTLAAAEQLYDALYQWDKQGSLEVTDVSLDFFKALYSDAATGTYSSSSSTYSSIVDAVKTFADGFVSIVETHAASNGSMSEQYDKSDGEQLSARDLTWSYAALLTANNRRNSVVPASWGETSASSVPGTCAATSAIGTYSSVTVTSWPSIVATGGTTTTATPTGSGSVTSTSKTTATASKTSTSTSSTSCTTPTAVAVTFDLTATTTYGENIYLVGSISQLGDWETSDGIALSADKYTSSDPLWYVTVTLPAGESFEYKFIRIESDDSVEWESDPNREYTVPQACGTSTATVTDTWR
B4: Aspergillus awamori glucoamylase variant Ser119→Tyr (Ser→Tyr119, S→Y119) (Aspergillus awamori; S143Y) (protein)
chain: ATLDSWLSNEATVARTAILNNIGADGAWVSGADSGIVVASPSTDNPDYFYTWTRDSGLVLKTLVDLFRNGDTSLLSTIENYISAQAIVQGISNPSGDLSSGAGLGEPKFNVDETAYTGYWGRPQRDGPALRATAMIGFGQWLLDNGYTSTATDIVWPLVRNDLSYVAQYWNQTGYDLWEEVNGSSFFTIAVQHRALVEGSAFATAVGSSCSWCDSQAPEILCYLQSFWTGSFILANFDSSRSGKDANTLLGSIHTFDPEAACDDSTFQPCSPRALANHKEVVDSFRSIYTLNDGLSDSEAVAVGRYPEDTYYNGNPWFLCTLAAAEQLYDALYQWDKQGSLEVTDVSLDFFKALYSDAATGTYSSSSSTYSSIVDAVKTFADGFVSIVETHAASNGSMSEQYDKSDGEQLSARDLTWSYAALLTANNRRNSVVPASWGETSASSVPGTCAATSAIGTYSSVTVTSWPSIVATGGTTTTATPTGSGSVTSTSKTTATASKTSTSTSSTSCTTPTAVAVTFDLTATTTYGENIYLVGSISQLGDWETSDGIALSADKYTSSDPLWYVTVTLPAGESFEYKFIRIESDDSVEWESDPNREYTVPQACGTSTATVTDTWR
B5: Aspergillus awamori glucoamylase variant Gly183→Lys (Gly→Lys183, G→K183) (Aspergillus awamori; G207K) (protein)
chain: ATLDSWLSNEATVARTAILNNIGADGAWVSGADSGIVVASPSTDNPDYFYTWTRDSGLVLKTLVDLFRNGDTSLLSTIENYISAQAIVQGISNPSGDLSSGAGLGEPKFNVDETAYTGSWGRPQRDGPALRATAMIGFGQWLLDNGYTSTATDIVWPLVRNDLSYVAQYWNQTGYDLWEEVNKSSFFTIAVQHRALVEGSAFATAVGSSCSWCDSQAPEILCYLQSFWTGSFILANFDSSRSGKDANTLLGSIHTFDPEAACDDSTFQPCSPRALANHKEVVDSFRSIYTLNDGLSDSEAVAVGRYPEDTYYNGNPWFLCTLAAAEQLYDALYQWDKQGSLEVTDVSLDFFKALYSDAATGTYSSSSSTYSSIVDAVKTFADGFVSIVETHAASNGSMSEQYDKSDGEQLSARDLTWSYAALLTANNRRNSVVPASWGETSASSVPGTCAATSAIGTYSSVTVTSWPSIVATGGTTTTATPTGSGSVTSTSKTTATASKTSTSTSSTSCTTPTAVAVTFDLTATTTYGENIYLVGSISQLGDWETSDGIALSADKYTSSDPLWYVTVTLPAGESFEYKFIRIESDDSVEWESDPNREYTVPQACGTSTATVTDTWR
B6: Aspergillus awamori glucoamylase variant Asn182→Ala (Aspergillus awamori; N206A) (protein)
chain: ATLDSWLSNEATVARTAILNNIGADGAWVSGADSGIVVASPSTDNPDYFYTWTRDSGLVLKTLVDLFRNGDTSLLSTIENYISAQAIVQGISNPSGDLSSGAGLGEPKFNVDETAYTGSWGRPQRDGPALRATAMIGFGQWLLDNGYTSTATDIVWPLVRNDLSYVAQYWNQTGYDLWEEVAGSSFFTIAVQHRALVEGSAFATAVGSSCSWCDSQAPEILCYLQSFWTGSFILANFDSSRSGKDANTLLGSIHTFDPEAACDDSTFQPCSPRALANHKEVVDSFRSIYTLNDGLSDSEAVAVGRYPEDTYYNGNPWFLCTLAAAEQLYDALYQWDKQGSLEVTDVSLDFFKALYSDAATGTYSSSSSTYSSIVDAVKTFADGFVSIVETHAASNGSMSEQYDKSDGEQLSARDLTWSYAALLTANNRRNSVVPASWGETSASSVPGTCAATSAIGTYSSVTVTSWPSIVATGGTTTTATPTGSGSVTSTSKTTATASKTSTSTSSTSCTTPTAVAVTFDLTATTTYGENIYLVGSISQLGDWETSDGIALSADKYTSSDPLWYVTVTLPAGESFEYKFIRIESDDSVEWESDPNREYTVPQACGTSTATVTDTWR
B7: Aspergillus awamori glucoamylase variant Leu177→His (Aspergillus awamori; L201H) (protein)
chain: ATLDSWLSNEATVARTAILNNIGADGAWVSGADSGIVVASPSTDNPDYFYTWTRDSGLVLKTLVDLFRNGDTSLLSTIENYISAQAIVQGISNPSGDLSSGAGLGEPKFNVDETAYTGSWGRPQRDGPALRATAMIGFGQWLLDNGYTSTATDIVWPLVRNDLSYVAQYWNQTGYDHWEEVNGSSFFTIAVQHRALVEGSAFATAVGSSCSWCDSQAPEILCYLQSFWTGSFILANFDSSRSGKDANTLLGSIHTFDPEAACDDSTFQPCSPRALANHKEVVDSFRSIYTLNDGLSDSEAVAVGRYPEDTYYNGNPWFLCTLAAAEQLYDALYQWDKQGSLEVTDVSLDFFKALYSDAATGTYSSSSSTYSSIVDAVKTFADGFVSIVETHAASNGSMSEQYDKSDGEQLSARDLTWSYAALLTANNRRNSVVPASWGETSASSVPGTCAATSAIGTYSSVTVTSWPSIVATGGTTTTATPTGSGSVTSTSKTTATASKTSTSTSSTSCTTPTAVAVTFDLTATTTYGENIYLVGSISQLGDWETSDGIALSADKYTSSDPLWYVTVTLPAGESFEYKFIRIESDDSVEWESDPNREYTVPQACGTSTATVTDTWR

How the values were obtained:
Assay in all cases: purified protein, by the assay type
[1] = substrate: OC[C@H]1O[C@H](O[C@H]2[C@H](O)[C@@H](O)[C@@H](O[C@H]3[C@H](O)[C@@H](O)[C@@H](O[C@H]4[C@H](O)[C@@H](O)[C@@H](O[C@H]5[C@H](O)[C@@H](O)[C@@H](O[C@H]6[C@H](O)[C@@H](O)[C@@H](O[C@H]7[C@H](O)[C@@H](O)C(O)O[C@@H]7CO)O[C@@H]6CO)O[C@@H]5CO)O[C@@H]4CO)O[C@@H]3CO)O[C@@H]2CO)[C@H](O)[C@@H](O)[C@@H]1O
[2] = substrate: OC[C@H]1O[C@H](O[C@H]2[C@H](O)[C@@H](O)[C@H](O)O[C@@H]2CO)[C@H](O)[C@@H](O)[C@@H]1O
[3] = substrate: OC[C@H]1O[C@H](OC[C@H]2OC(O)[C@H](O)[C@@H](O)[C@@H]2O)[C@H](O)[C@@H](O)[C@@H]1O
[4] = other: 45 C., pH 4.5, 0.05M sodium acetate buffer, pH 4.5, 45.0 °C
[5] = other: pH 4.4 and 50° C., pH 4.4, 50.0 °C
[6] = other: 45 C., pH 4.5, 0.05M sodium acetate buffer

Row | Protein | Km ([1]; other: pH 4.4 and 50° C.) | kcat ([1]; other: pH 4.4 and 50° C.) | kcat/Km ([1]; other: pH 4.4 and 50° C.) | Km ([2]; other: pH 4.4 and 50° C.) | kcat ([2]; other: pH 4.4 and 50° C.) | kcat/Km ([2]; other: pH 4.4 and 50° C.) | Km ([3]; other: pH 4.4 and 50° C.) | kcat ([3]; other: pH 4.4 and 50° C.) | kcat/Km ([3]; other: pH 4.4 and 50° C.) | Km [1, 6] | Km [2, 6] | Km [3, 6] | other results
1 | B1 | – | – | – | – | – | – | – | – | – | – | – | – | Km [1, 4]: 140 µM; kcat [1, 4]: 66.2 s⁻¹; Km [1, 5]: 220 µM; kcat [1, 5]: 84 ± 2 s⁻¹; kcat/Km [1, 5]: 390000 M⁻¹ s⁻¹; Km [2, 4]: 1400 µM; kcat [2, 4]: 9.1 s⁻¹; Km [2, 5]: 1730 µM; kcat [2, 5]: 14.4 ± 0.5 s⁻¹; kcat/Km [2, 5]: 8300 M⁻¹ s⁻¹; Km [3, 4]: 30300 µM; kcat [3, 4]: 0.34 s⁻¹; Km [3, 5]: 36000 µM; kcat [3, 5]: 0.487 ± 0.031 s⁻¹; kcat/Km [3, 5]: 13.5 M⁻¹ s⁻¹
2 | B2 | 260 µM | 16.6 ± 0.4 s⁻¹ | 63000 M⁻¹ s⁻¹ | 1520 µM | 1.86 ± 0.11 s⁻¹ | 1220 M⁻¹ s⁻¹ | 73100 µM | 0.0728 ± 0.0027 s⁻¹ | 0.997 M⁻¹ s⁻¹ | – | – | – | –
3 | B3 | – | – | – | – | – | – | – | – | – | 140 µM | 900 µM | 26700 µM | –
4 | B4 | – | – | – | – | – | – | – | – | – | 200 µM | 1100 µM | 66200 µM | –
5 | B5 | – | – | – | – | – | – | – | – | – | 140 µM | 1100 µM | 39000 µM | –
6 | B6 | 260 µM | 65 ± 4 s⁻¹ | 250000 M⁻¹ s⁻¹ | 1380 µM | 11.6 ± 0.3 s⁻¹ | 8400 M⁻¹ s⁻¹ | 64300 µM | 0.397 ± 0.019 s⁻¹ | 6.18 M⁻¹ s⁻¹ | – | – | – | –
7 | B7 | 300 µM | 15.9 ± 0.8 s⁻¹ | 53000 M⁻¹ s⁻¹ | 5300 µM | 2.6 ± 0.1 s⁻¹ | 490 M⁻¹ s⁻¹ | 49700 µM | 0.0438 ± 0.0018 s⁻¹ | 0.881 M⁻¹ s⁻¹ | – | – | – | –
